# T1: APRIL, soluble form (Homo sapiens (Human), UniProt O75888 105-250)
# T1 sequence: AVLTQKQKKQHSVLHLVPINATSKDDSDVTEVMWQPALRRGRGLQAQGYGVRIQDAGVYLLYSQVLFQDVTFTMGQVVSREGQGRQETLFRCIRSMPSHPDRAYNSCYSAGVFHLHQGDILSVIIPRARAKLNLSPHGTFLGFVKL
# B1: I082G01 (scFv)
# scFv: QMQLVQSGAEVKKPGASVKVSCKASGYTFTSYYMHWVRQAPGQGLEWMGLVHPNDGSVNYAQKFKGRVTMTRDTSTSTVYMELSSLRSDDTAVYYCARDRGSGWPNWYFDLWGQGTLVTVSSGGGGSGGGGSGGGGSDIQMTQSPSTLSASIGDRVTITCRASEGIYHWLAWYQQKPGKAPKLLIYKASSLASGAPSRFSGSGSGTDFTLTISSLQPDDFATYYCQQYSNYPLTFGGGTKLEIKH
# B2: I084C11 (scFv)
# scFv: GVQLEESGAEVKKPGASVKVSCKASGYTFTGYYMHWVRQAPGQGLEWMGWINPNSGGTNYAQKFQGRVTMTRDTSISTAYMELSRLRSDDTAVYYCARGNAWGAFDIWGRSTLVTVSSGGGGSGGGGSGGGGSQSVLTQPASVSGSPGQSITISCTGTSSDVGGYNYVSWYQQHPGKAPKLMIYEGSKRPSGVSNRFSGSKSGNTASLTVSGLQAEDEADYYCSSYTTRSTRVFGGGTKLTVLG
# B3: I084A01 (scFv)
# scFv: QVQLVQSGGGLVQPGGSLRLSCAASGFTFSSYEMNWVRQAPGKGLEWVSYISSSGSTTYYADSVKGRFTISRDNAKNSLYLQMNSLRAEDTAVYYCARDTTDYWGQGTMVTVSSGGGGSGGGGSGGGGSQSVLTQPPSASGTPGQRVTISCSGSSSNIGSNTVNWYQRLPGAAPQLLIYNNDQRPSGIPDRFSGSKSGTSGSLVISGLQSEDEADYYCASWDDSLNGRVFGGGTKLTVLG
# B4: I082B08 (scFv)
# scFv: QVQLVQSGAEVKKPGGSVKVSCKASAYTFTRYYMHWVRQAPGQGLEWMGIINPSGGRTSYAQKFQGRVTMTRDTSTSTVYMELSSLRSEDTAVYYCARDLGIAGTIYFDYWGKGTLVTVSSGGGGSGGGGSGGGGSQSVLTQPPSVSAAPGQKVTISCSGSTSNIGNNYVSWYQQHPGKAPKLMIYDVSKRPSGVPDRFSGSKSGNSASLDISGLQSEDEADYYCAAWDDSLSEFLFGTGTKLTVLG
# B5: I084B02 (scFv)
# scFv: QVQLVQSGGGLVQPGGSLRLSCAASGFTFSSYEMNWVRQAPGKGLEWVSYISSSGSTTYYADSVKGRFTISRDNAKNSLYLQMNSLRAEDTAVYYCARDTTDYWGQGTLVTVSSGGGGSGGGGSGGGGSDIVMTQSPSTLSASVGDRVTITCRASQGISSWLAWYQQKPGRAPKVLIYKASTLESGVPSRFSGSGSGTDFTLTISSLQPEDFATYYCQQSYSTPWTFGQGTKLEIKR
# B6: I080A08 (scFv)
# scFv: QVTLKESGGDLVQPGGSLRLSCAASGLTFMSYAMTWVRQAPGKGLEWVSSISGSGDNTYYGDSVRGRFTISRDNSKNTLFLQLNSLRAEDTAFYYCAKVHSTGYAFENWGRGTLVTVSSGGGGSGGGGSGGGGSAQSVLTQPPSVSGAPGQRVTISCTGSSSNIGAGYNVHWYQQLPGTAPRLLISSNTNRPSGVPDRFSGSKSGTSASLAITGLQAEDEADYYCQSYDSSLSGFVFGTGTKVTVLG
# B7: I082A05 (scFv)
# scFv: QVQLQQSGGGVVQPGRSLRLSCAASGFTYSSYAMHWVRQAPGKGLEWVAVISYDGSIKYYADSVKGRFTISRDNSKNTLYLQMNSLRAEDTAVYYCARDLDFDYWGKGTLVTVSSGGGGSGGGGSGGGGSQSVLTQPPSVSAAPGQKVTISCSGSTSNIGNNYVSWYQQHPGKAPKFMIYDVSKRPSGVSNRFSGSKSGNTASLTISGVQAEDEADYYCSSYTSASTVIFGGGTKLTVLG
# B8: BAB2019 (scFv)
# scFv: EVQLVQSGAEVKKPGASVKVSCKASGYTFTSSGISWVRQAPGQGLEWMGWINGYNGNTKYAQKFQGRVTMTTDTSTTTAYMELRSLRSDDTAVYYCARDSYDILTDYYNMIMDVWGQGTLVTVSSGGGGSGGGGSGGGGSQSVLTQPASVSGSPGQSITISCTGTSSDVGGYNYVSWYQQHPGKAPKLMIYEGSKRPSGVSNRFSGSKSGNTASLTISGLQAEDEADYYCSSYTTRSTRVFGGGTKLTVLG
# B9: BAB2065 (scFv)
# scFv: GVQLVQSGAEVKKPGASVKVSCKASGYTFTKYTMHWVRQAPGQGPEWMGWINGGSGDTKYSRKFQGRVTITKDTSASAAYMELSSLGSEDTALYYCARATYDPLTGYSFDGFDIWGQGTMVTVSSGGGGSGGGGSGGGGSSELTQPASVSGSPGQSITISCTGTSSDVGGYNYVSWYQQHPGKAPKLMIYEGSKRPSGVSNRFSGSKSGNTASLTISGLQAEDEADYYCSSYTTRSTRVFGGGTKLTVLG
# B10: BAB2001 (scFv)
# scFv: GVQLVQSGAEVRKPGASVKVSCKPSGYPFSGNYIHWVRQAPGQGPEWMGWINPNSGDTKYSQKFQGWVTMTRDTSVSTVYMELNRLKSDDTAIYYCAREQYDTLTGSPYGMDVWGKGTLVTVSSGGGGSGGGGSGGGGSDIQMTQSPSTLSASIGDRVTITCRASQGINNYLAWYQQKPGRAPKLLIYAASSLQSGVPSRFSGSGSGTDFTLTISSLQPEDFATYYCLQDSDYPLTFGGGTKLEIKR
# B11: BAB2015 (scFv)
# scFv: QVQLVQSGAEVKKPGSSVKVSCKASGGTLGNYGISWVRQAPGQGLEWMGAIIPNFGTTNYVQKFQGRVTMTTDTSTSTAYMELRSLRSDDTAVYYCARGASSGWYDYYYYMDVWGKGTMVTVSSGGGGSGGGGSGGGGSDIQMTQSPSTLSASIGDRVTITCRASEGIYHWLAWYQQKPGKAPKLLIYKASSLASGAPSRFSGSGSGTDFTLTISSLQPDDFATYYCQQYSNYPLTFGGGTKLEIRR
# B12: BAB2016 (scFv)
# scFv: EVQLVQSGGGLVQPGGSLRLSCAASGFTFSSYWMSWVRQAPGKGLEWVANIKQDGSGKYYVDSVKGRFTISRDNAKNSLYLQMNSLRAEDTAVYYCARDPRYDILTGYLYGMDVWGQGTMVTVSSGGGGSGGGGSGGGGSQSVLTQPASVSGSPGQSITISCTGTSSDVGGYNYVSWYQQHPGKAPKLMIYEGSKRPSGVSNRFSGSKSGNTASLTISGLQAEDEADYYCSSYTTRSTRVFGGGTKLTVLG
# B13: BAB2087 (scFv)
# scFv: QVQLVQSGAEVKKPGASVKVSCKASGFAFSSYDINWVRQAPGQGLEWMGWMNPKSGKTGYAQNFQGRVTMTRNTSISTAYMELSSLKSEDTAVYFCARGFTGYDILTDYYSVDYFDSWGRGTLVTVSSGGGGSGGGGSGGGGSALPVLTQPPSVSVAPGQTARITCGGSSIGRKSVHWYQQSPGQAPVLVVYDDSDRPSGIPERFSGSNSGDTATLTISRVEVGDEADYYCQVWDINSDHVVFGGGTKLTVLG
# B14: BAB2034 (scFv)
# scFv: QVQLQQSGPGLVKPSQTLSLTCAISGDSVSSNSAAWNWIRQSPSRGLEWLGRTYYRSKWYNDYAVSVKSRITINPDTSKNQFSLQLNSVTPEDTAVYYCAREGAHYDILTGHNYYHYGMDVWGQGTMVTVSSGGGGSGGGGSGGGGSQSVLTQPPSASGSPGQSVTISCTGTSSDVGGYNYVSWYQQHPGKAPKFMIYDVSKRPSGVSNRFSGSKSGNTASLTISGVQAEDEADYYCSSYTSASTVIFGGGTKLTVLG
# B15: BAB2080 (scFv)
# scFv: KVQLVQSGGGLVKPGGSLRLSCAASGFTFSNYGMHWVRQAPGKGLEWVALISYDGSNKYYADSVKGRFTISRDNSKNTLYLQMNSLRAEDTAVYYCAKLNSLRGGHDYWGRGTLVTVSSGGGGSGGGGSGGGGSQSVLTQPPSVSAAPGQKVTISCSGSTSNIGNNYVSWYQQHPGKAPKLMIYDVSKRPSGVPDRFSGSKSSNSASLDISGLQSEDEADYYCAAWDDSLSEFLFGTGTKLTVLG
# Target: T2, HIS-tagged B Lymphocyte Stimulator (human, UniProt Q9Y275 71-285)
# T2 construct: Expressed in E. coli from pQE9 and purified; also called histidine-tagged B Lymphocyte Stimulator; HIS-B Lymphocyte Stimulator; not shown: histidine tag of the pQE9 vector
# Assay: BIAcore, periplasmic scFv on high density HIS-BLyS surface
# Procedure: All BIAcore analysis was performed on BIAcore 2000 machines, using the BIAcore 2000 control software and evaluated using the BIAevaluation 3.0 software. A high density His-tagged B Lymphocyte Stimulator surface (>1000 RU HIS-B Lymphocyte Stimulator coupled) was prepared in flow cell 2 by amine coupling to a CM5 chip. A new CM5 chip was inserted into the BIAcore and a sensorgram started over flow cell 2 with HBS buffer at a flow rate of 5 μl/min. The NHS and EDC solution were mixed 1:1 before injecting 30 μl over the CM5 surface. Fifty μl HIS-B Lymphocyte Stimulator (at 10 μg/ml in Sodium acetate buffer, pH4) was injected and allowed to couple to the surface. Thirty μl of ethanolamine-HCl solution was then injected to block free NHS esters. Prior to using the chip, 10 μl of 4M Guanidine hydrochloride in HBS was injected over the surface to strip the surface of non-covalently bound B Lymphocyte Stimulator. A blank surface (no HIS-B Lymphocyte Stimulator) was also prepared over flow cell 1 so that non-specific binding effects can be subtracted from the HIS-B Lymphocyte Stimulator binding curves.
# The 96-well plate containing periplasmic scFvs was secured inside the BIAcore. Two ml of 4M Guanidine hydrochloride in HBS was placed in a rack inside the BIAcore for regeneration of the HIS-B Lymphocyte Stimulator surface between samples. The sensorgram was run over flow cells 1 and 2 at a flow rate of […].
row,binding result,Binder
1,binds,B1
2,binds,B2
3,binds,B3
4,binds,B4
5,binds,B5
6,binds,B6
7,binds,B7

# Target: T1, APRIL, soluble form
# Assay: phage display panning on soluble APRIL, rounds two and three
# Source text: (§1) In a specific embodiment, antibodies of the present invention cross react with APRIL (SEQ ID NO:3239; GenBank Accession No. AF046888; J. Exp. Med. 188(6):1185-1190; PCT International Publication WO97/33902). […] These scFvs were isolated by panning a phage scFv library comprising VH and VL domains obtained from human bone marrow B cells (BM library). Phage from the BM phage library were first selected for binding to soluble B Lymphocyte Stimulator (amino acids 134-285 of SEQ ID NO:3228). A second round of selection for binding to the soluble form of APRIL (amino acids 105-250 of SEQ ID NO:3239) was then performed on the B Lymphocyte Stimulator binding phage selected in round one. A third round of selection for binding to the soluble form of APRIL (amino acids 105-250 of SEQ ID NO:3239) was then performed on the phage selected in round two. A final (fourth) round of selection for binding to the soluble form of B Lymphocyte Stimulator (amino acids 134-285 of SEQ ID NO:3228) was then performed on the phage selected in round three. Phage clones that bound B Lymphocyte Stimulator in the fourth round of selection were eluted with either 0.1M triethylamine (TEA) or with a TACI-Fc fusion protein (e.g., the extracellular domain of TACI (amino acids 31 to 159 of Genbank Accession No. AAC51790) fused to Fc).
row,binding result,Binder
1,binds,B8
2,binds,B9
3,binds,B10
4,binds,B11
5,binds,B12
6,binds,B13
7,binds,B14
8,binds,B15

# Target: T3, B Lymphocyte Stimulator, soluble form (human) (human, UniProt Q9Y275 134-285, biotinylated with NHS-biotin where used as biotinylated B Lymphocyte Stimulator)
# T3 construct: Coated on plastic, captured on streptavidin plates, amine-coupled to a CM5 chip or free in solution, depending on the assay; also called BLyS; immobilized B Lymphocyte Stimulator
# Assay: phage display panning on soluble BLyS
# Source text: as §1
row,binding result,Binder
1,binds,B8
2,binds,B9
3,binds,B10
4,binds,B11
5,binds,B12
6,binds,B13
7,binds,B14
8,binds,B15
